The target in assay [1] is T1, mouse NPR1 extracellular domain expressed with a C-terminal myc-myc-hexahistidine (mNPR1-MMH) (mouse, UniProt P18293 29-469). Put plainly: SPR, mAb captured, 37 C. How it is done:
(§1) Equilibrium dissociation constant (KD) for different NPR1 reagents binding to purified anti-NPR1 monoclonal antibodies (mAbs) were determined using a real-time surface plasmon resonance based Biacore 4000 biosensor. All binding studies were performed in 10 mM HEPES, 150 mM NaCl, 3 mM EDTA, and 0.05% v/v Surfactant Tween-20, pH 7.4 (HBS-ET) running buffer at 25° C. and 37° C. The Biacore CM5 sensor chip surface was first derivatized by amine coupling with either mouse anti-human Fc specific mAb (GE Healthcare, #BR100839) or goat anti-human Fcy specific polyclonal antibody (Jackson ImmunoResearch Laboratories, #BR-1008-39) to capture anti-NPR1 mAbs.
Background: SPR reads the build-up and loss of mass on a sensor chip optically.
Target sequence in this assay (P18293 other isoform, or with tags, fused parts or gaps): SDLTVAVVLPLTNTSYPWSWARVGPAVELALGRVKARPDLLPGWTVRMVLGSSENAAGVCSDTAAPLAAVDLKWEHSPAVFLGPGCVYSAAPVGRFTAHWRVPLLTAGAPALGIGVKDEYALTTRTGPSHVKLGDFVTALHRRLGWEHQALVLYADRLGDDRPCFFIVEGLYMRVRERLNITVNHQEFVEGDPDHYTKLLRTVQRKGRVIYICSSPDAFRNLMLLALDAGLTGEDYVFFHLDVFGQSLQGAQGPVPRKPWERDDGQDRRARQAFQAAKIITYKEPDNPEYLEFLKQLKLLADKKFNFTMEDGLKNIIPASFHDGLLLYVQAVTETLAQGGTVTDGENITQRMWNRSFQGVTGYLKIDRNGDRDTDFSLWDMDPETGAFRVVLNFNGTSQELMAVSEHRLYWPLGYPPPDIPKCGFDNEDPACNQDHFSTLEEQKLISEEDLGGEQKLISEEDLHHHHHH

Assay [2] has as its target T2, human NPR1 extracellular domain expressed with a C-terminal mouse IgG2a (hNPR1-mFc) (human).
T2 construct: also called hNPR1-Fc; human NPR1 dimer
T2 chain: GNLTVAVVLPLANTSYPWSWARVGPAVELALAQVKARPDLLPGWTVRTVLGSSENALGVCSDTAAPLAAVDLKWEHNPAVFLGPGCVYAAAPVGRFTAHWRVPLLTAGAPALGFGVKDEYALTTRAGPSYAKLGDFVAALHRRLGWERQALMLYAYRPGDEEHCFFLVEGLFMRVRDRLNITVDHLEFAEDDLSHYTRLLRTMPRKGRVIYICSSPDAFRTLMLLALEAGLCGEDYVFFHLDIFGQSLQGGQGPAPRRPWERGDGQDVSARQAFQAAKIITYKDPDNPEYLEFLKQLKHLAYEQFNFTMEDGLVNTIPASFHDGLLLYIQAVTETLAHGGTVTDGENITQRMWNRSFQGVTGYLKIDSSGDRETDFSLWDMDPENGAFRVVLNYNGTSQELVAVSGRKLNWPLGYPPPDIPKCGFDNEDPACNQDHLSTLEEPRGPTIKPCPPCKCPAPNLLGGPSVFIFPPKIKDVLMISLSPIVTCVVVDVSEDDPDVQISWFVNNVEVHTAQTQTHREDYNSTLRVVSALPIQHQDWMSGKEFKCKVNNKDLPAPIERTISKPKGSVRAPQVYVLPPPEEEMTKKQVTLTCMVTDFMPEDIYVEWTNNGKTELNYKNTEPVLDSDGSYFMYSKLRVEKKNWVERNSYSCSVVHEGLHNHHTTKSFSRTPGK
Put plainly: SPR, mAb captured, 37 C. How it is done:
as §1

The target of assay [3] is T3, monkey NPR1 extracellular domain expressed with a C-terminal myc-myc-hexahistidine (mfNPR1-MMH) (monkey, UniProt P16066 33-473 (human entry)).
T3 construct: also called monomeric monkey NPR1
T3 chain: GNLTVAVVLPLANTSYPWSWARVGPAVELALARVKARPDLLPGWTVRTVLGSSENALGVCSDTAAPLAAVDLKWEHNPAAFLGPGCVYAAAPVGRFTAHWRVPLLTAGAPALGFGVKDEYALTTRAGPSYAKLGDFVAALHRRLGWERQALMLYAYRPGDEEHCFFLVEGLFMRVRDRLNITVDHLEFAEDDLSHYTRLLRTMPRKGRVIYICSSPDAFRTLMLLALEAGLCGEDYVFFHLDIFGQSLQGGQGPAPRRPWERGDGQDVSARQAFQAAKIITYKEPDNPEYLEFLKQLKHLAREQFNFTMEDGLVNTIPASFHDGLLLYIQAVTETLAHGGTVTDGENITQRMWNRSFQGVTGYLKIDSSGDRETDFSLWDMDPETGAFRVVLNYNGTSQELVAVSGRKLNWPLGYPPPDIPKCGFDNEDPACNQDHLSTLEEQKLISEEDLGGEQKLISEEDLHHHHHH
Put plainly: SPR, mAb captured, 37 C. As for the experimental part: as §1

For assay [4], the target named is T1, mouse NPR1 extracellular domain …. Put plainly: SPR, mAb captured, 25 C. How it is done:
as §1

Assay [5] addresses T2, human NPR1 extracellular domain …. Put plainly: SPR, mAb captured, 25 C. How it is done: as §1
Assay [6] addresses T3, monkey NPR1 extracellular domain …. Put plainly: SPR, mAb captured, 25 C. How it is done:
as §1

B1: mAb22810 (antibody, V domains shown)
VH: EVQLVESGGGLVKPGGSLRLSCVVSGFTFRIYTMNWVRQAPGKGLEWVASISSSSSFINYADSLKGRFTISRDNAQNSLYLQMNSLRAEDTAIYYCARAAGNDVLPGRMDVWGQGTSVTVSS
VL: EIVLTQSPGTLSLSPGERATLSCRASQSVSSNYLAWYQQKPGQVPSLLIYGASSRATGIPDRFSGSGSGTDFTLTITRLEPEDFAVYYCQQYGISPWTFGQGTKVEIK
With B1, the “100 nM Ag Bound (RU)” value is -2 RU in assay [1]; 9 RU in assay [2]; 0 RU in assay [3]; -1 RU in assay [4]; 4 RU in assay [5]; 1 RU in assay [6]. In addition, the binding result in assay [6] is reported as “no binding (tested: 100 nM)”.
